In paper PMC9482650, “Quantitative fragmentomics allow affinity mapping of interactomes” (Nature Communications, 2022):

Experiments:
Assay in all cases: holdup assay
Design in all cases: key: below the threshold = too weak to quantify, mostly under pKd 3.1 to 4
AHNAK1, Q09666 = molecular target: AHNAK1, Q09666
PDZRN4_1, Q6ZMN7 = molecular target: PDZRN4_1, Q6ZMN7
NHERF3_3, Q5T2W1 = molecular target: T1, NHERF3_3, Q5T2W1
T1 sequence (Q5T2W1 238-333, limits assumed, looked up): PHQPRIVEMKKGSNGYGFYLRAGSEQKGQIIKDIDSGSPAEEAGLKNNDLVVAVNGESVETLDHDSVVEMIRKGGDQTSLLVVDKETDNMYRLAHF

TJP2_1, Q9UDY2 = molecular target: TJP2_1, Q9UDY2
Inadl_3, Q8NI35 = molecular target: Inadl_3, Q8NI35
IL16_1, Q14005 = molecular target: IL16_1, Q14005
MAGI2_3, Q86UL8 = molecular target: MAGI2_3, Q86UL8
MAGI2_5, Q86UL8 = molecular target: MAGI2_5, Q86UL8
Inadl_1, Q8NI35 = molecular target: Inadl_1, Q8NI35
MPDZ_12, O75970 = molecular target: T2, MPDZ_12, O75970
T2 sequence (O75970 1857-1958, limits assumed, looked up): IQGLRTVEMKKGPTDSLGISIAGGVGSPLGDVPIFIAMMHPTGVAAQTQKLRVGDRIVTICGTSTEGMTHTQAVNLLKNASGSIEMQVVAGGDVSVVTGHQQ

MPDZ_5, O75970 = molecular target: T3, MPDZ_5, O75970
T3 sequence (O75970 695-796, limits assumed, looked up): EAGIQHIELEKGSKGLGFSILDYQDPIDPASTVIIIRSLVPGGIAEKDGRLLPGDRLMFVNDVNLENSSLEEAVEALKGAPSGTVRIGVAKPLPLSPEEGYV

GRIP1_2, Q9Y3R0 = molecular target: T4, GRIP1_2, Q9Y3R0
T4 sequence (Q9Y3R0 145-248, limits assumed, looked up): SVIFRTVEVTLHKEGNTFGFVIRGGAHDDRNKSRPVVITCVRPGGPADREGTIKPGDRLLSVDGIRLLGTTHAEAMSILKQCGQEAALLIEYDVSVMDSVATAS

NHERF4_2, Q86UT5 = molecular target: NHERF4_2, Q86UT5
MPP7, Q5T2T1 = molecular target: T5, MPP7, Q5T2T1
T5 sequence (Q5T2T1 134-230, limits assumed, looked up): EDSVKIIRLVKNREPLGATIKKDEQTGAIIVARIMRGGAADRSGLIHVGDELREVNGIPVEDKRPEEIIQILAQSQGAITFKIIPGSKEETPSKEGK

TIAM2, Q8IVF5 = molecular target: T6, TIAM2, Q8IVF5
T6 sequence (Q8IVF5 885-986, limits assumed, looked up): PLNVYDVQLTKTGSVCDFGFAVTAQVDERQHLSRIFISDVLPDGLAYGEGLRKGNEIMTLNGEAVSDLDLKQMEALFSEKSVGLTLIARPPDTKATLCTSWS

FRMPD2_1, Q68DX3 = molecular target: FRMPD2_1, Q68DX3
NHERF2_2, Q15599 = molecular target: NHERF2_2, Q15599
MAGI2_4, Q86UL8 = molecular target: MAGI2_4, Q86UL8
FRMPD1, Q5SYB0 = molecular target: T7, FRMPD1, Q5SYB0
T7 sequence (Q5SYB0 52-145, limits assumed, looked up): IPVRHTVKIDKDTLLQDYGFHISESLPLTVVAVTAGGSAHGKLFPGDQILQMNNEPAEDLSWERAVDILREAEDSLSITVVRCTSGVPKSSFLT

MAGI1_1, Q96QZ7 = molecular target: MAGI1_1, Q96QZ7
DLG1_3, Q12959 = molecular target: DLG1_3, Q12959
HTRA4, P83105 = molecular target: T8, HTRA4, P83105
T8 sequence (P83105 378-476, limits assumed, looked up): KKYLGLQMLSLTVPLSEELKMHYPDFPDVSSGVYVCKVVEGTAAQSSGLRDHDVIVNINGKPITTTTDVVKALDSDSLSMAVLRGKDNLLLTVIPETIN

GRIP2_7, Q9C0E4 = molecular target: GRIP2_7, Q9C0E4
Inadl_2, Q8NI35 = molecular target: Inadl_2, Q8NI35
TJP3_3, O95049 = molecular target: T9, TJP3_3, O95049
T9 sequence (O95049 375-456, limits assumed, looked up): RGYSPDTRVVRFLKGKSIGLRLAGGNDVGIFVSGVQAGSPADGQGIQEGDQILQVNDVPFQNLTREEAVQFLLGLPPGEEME

SNTB1, Q13884 = molecular target: T10, SNTB1, Q13884
T10 sequence (Q13884 107-205, limits assumed, looked up): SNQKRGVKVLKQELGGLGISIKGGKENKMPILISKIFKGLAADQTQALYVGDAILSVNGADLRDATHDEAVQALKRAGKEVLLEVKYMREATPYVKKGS

GRID2IP_1, A4D2P6 = molecular target: GRID2IP_1, A4D2P6
IL16_4, Q14005 = molecular target: IL16_4, Q14005
[1] = plain residues with an end cap or a label only (N-terminal biotin on a linker: ahx)
[2] = plain residues with an end cap or a label only (N-terminal biotin on a linker: ttds)

Sequence of Inadl_3, Q8NI35 (Q8NI35 359-469): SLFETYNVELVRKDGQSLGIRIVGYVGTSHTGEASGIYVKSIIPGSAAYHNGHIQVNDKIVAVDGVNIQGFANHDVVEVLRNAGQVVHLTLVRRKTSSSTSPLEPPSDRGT
Sequence of GRID2IP_1, A4D2P6 (A4D2P6 1-87): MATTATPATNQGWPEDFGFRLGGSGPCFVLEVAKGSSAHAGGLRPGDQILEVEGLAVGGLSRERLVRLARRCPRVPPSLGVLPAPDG
Sequence of IL16_1, Q14005 (Q14005 210-306): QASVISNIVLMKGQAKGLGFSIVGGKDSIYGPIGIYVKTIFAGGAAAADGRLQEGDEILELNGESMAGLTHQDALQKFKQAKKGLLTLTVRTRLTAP
Sequence of NHERF4_2, Q86UT5 (Q86UT5 220-308): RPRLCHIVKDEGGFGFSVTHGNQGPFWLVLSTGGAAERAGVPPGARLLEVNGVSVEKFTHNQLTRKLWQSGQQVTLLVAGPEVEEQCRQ
Sequence of MAGI2_5, Q86UL8 (Q86UL8 915-1017): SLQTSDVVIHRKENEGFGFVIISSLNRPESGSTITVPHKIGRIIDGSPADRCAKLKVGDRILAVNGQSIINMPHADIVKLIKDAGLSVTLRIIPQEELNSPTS
Sequence of IL16_4, Q14005 (Q14005 1229-1329): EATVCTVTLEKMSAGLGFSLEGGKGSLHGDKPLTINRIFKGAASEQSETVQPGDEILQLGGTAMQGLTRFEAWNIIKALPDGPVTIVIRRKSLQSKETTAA
Sequence of MAGI2_3, Q86UL8 (Q86UL8 600-682): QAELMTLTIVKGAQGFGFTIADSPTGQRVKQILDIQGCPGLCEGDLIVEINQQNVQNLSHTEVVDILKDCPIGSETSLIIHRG
Sequence of MAGI2_4, Q86UL8 (Q86UL8 772-865): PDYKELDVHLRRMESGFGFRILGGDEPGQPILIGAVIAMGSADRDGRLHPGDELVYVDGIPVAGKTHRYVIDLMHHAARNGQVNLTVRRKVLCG
Sequence of FRMPD2_1, Q68DX3 (Q68DX3 770-861): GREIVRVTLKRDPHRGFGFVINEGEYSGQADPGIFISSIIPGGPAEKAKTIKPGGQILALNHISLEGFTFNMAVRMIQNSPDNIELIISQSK
Sequence of PDZRN4_1, Q6ZMN7 (Q6ZMN7 213-318): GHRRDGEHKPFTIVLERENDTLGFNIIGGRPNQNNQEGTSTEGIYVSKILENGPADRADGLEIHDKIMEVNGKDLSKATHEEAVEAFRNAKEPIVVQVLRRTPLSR
Sequence of DLG1_3, Q12959 (Q12959 457-571): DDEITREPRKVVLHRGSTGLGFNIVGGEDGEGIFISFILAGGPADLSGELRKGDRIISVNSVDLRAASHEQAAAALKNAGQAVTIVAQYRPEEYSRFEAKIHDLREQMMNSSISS
Sequence of TJP2_1, Q9UDY2 (Q9UDY2 24-128): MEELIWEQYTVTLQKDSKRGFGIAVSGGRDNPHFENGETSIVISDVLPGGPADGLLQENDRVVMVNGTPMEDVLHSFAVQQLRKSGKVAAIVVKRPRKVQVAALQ
Sequence of MAGI1_1, Q96QZ7 (Q96QZ7 1-106): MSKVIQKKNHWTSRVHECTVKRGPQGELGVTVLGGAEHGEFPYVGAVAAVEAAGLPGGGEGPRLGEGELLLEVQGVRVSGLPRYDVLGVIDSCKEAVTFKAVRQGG
Sequence of GRIP2_7, Q9C0E4 (Q9C0E4 934-1023): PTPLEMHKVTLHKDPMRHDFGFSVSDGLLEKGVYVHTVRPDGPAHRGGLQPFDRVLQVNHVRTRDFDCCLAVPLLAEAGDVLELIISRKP
Sequence of Inadl_2, Q8NI35 (Q8NI35 238-335): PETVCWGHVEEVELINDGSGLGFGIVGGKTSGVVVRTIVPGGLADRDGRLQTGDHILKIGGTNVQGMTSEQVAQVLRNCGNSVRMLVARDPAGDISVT
Sequence of Inadl_1, Q8NI35 (Q8NI35 113-229): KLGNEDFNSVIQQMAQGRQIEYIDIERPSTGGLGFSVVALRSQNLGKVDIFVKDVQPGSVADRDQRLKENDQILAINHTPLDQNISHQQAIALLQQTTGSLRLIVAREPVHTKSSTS
Sequence of AHNAK1, Q09666 (Q09666 4-100): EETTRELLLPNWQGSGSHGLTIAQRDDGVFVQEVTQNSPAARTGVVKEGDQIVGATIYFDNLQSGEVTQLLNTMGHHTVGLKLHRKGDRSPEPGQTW
Sequence of NHERF2_2, Q15599 (Q15599 142-238): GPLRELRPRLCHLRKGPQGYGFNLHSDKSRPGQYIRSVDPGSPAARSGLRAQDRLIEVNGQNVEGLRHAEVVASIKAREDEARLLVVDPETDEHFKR

In the case of YNSFLSVTTV [PDZRN3, Q9UPQ7], the pKd (AHNAK1, Q09666; [1]) is reported as 3.53, the pKd (PDZRN4_1, Q6ZMN7; [1]) is reported as “below the threshold” and the pKd (NHERF3_3, Q5T2W1; [1]) is reported as “below the threshold”. For the same binder, the pKd (TJP2_1, Q9UDY2; [1]) was “below the threshold”, the pKd (Inadl_3, Q8NI35; [1]) was 3.76 and the pKd (IL16_1, Q14005; [1]) was “below the threshold”. The pKd (MAGI2_3, Q86UL8; [1]) was 3.56, the pKd (MAGI2_5, Q86UL8; [1]) was 3.9 and the pKd (Inadl_1, Q8NI35; [1]) was 3.82. For the same binder, the pKd (MPDZ_12, O75970; [1]) was “below the threshold”, the pKd (MPDZ_5, O75970; [1]) was “below the threshold” and the pKd (GRIP1_2, Q9Y3R0; [1]) was “below the threshold”. The pKd (NHERF4_2, Q86UT5; [1]) was “below the threshold”, the pKd (MPP7, Q5T2T1; [1]) was “below the threshold” and the pKd (TIAM2, Q8IVF5; [1]) was “below the threshold”. The pKd (FRMPD2_1, Q68DX3; [1]) was 3.54, the pKd (NHERF2_2, Q15599; [1]) was “below the threshold” and the pKd (MAGI2_4, Q86UL8; [1]) was 4.56. For the same binder, the pKd (FRMPD1, Q5SYB0; [1]) was “below the threshold”, the pKd (MAGI1_1, Q96QZ7; [1]) was “below the threshold” and the pKd (DLG1_3, Q12959; [1]) was 3.83. For the same binder, the pKd (HTRA4, P83105; [1]) was 4.2, the pKd (GRIP2_7, Q9C0E4; [1]) was “below the threshold” and the pKd (Inadl_2, Q8NI35; [1]) was “below the threshold”. The pKd (TJP3_3, O95049; [1]) was “below the threshold”, the pKd (SNTB1, Q13884; [1]) was 3.72 and the pKd (GRID2IP_1, A4D2P6; [1]) was “below the threshold”. For the same binder, the pKd (IL16_4, Q14005; [1]) was “below the threshold”.

In the case of KLVIKTETTV [RASSF6, Q6ZTQ3], the pKd (AHNAK1, Q09666; [2]) is reported as “below the threshold”, the pKd (PDZRN4_1, Q6ZMN7; [2]) is reported as 4.15 and the pKd (NHERF3_3, Q5T2W1; [2]) is reported as “below the threshold”. For the same binder, the pKd (TJP2_1, Q9UDY2; [2]) was “below the threshold”, the pKd (Inadl_3, Q8NI35; [2]) was “below the threshold” and the pKd (IL16_1, Q14005; [2]) was “below the threshold”. For the same binder, the pKd (MAGI2_3, Q86UL8; [2]) was 3.73, the pKd (MAGI2_5, Q86UL8; [2]) was 3.77 and the pKd (Inadl_1, Q8NI35; [2]) was “below the threshold”. The pKd (MPDZ_12, O75970; [2]) was “below the threshold”, the pKd (MPDZ_5, O75970; [2]) was “below the threshold” and the pKd (GRIP1_2, Q9Y3R0; [2]) was “below the threshold”. For the same binder, the pKd (NHERF4_2, Q86UT5; [2]) was “below the threshold”, the pKd (MPP7, Q5T2T1; [2]) was “below the threshold” and the pKd (TIAM2, Q8IVF5; [2]) was “below the threshold”. For the same binder, the pKd (FRMPD2_1, Q68DX3; [2]) was “below the threshold”, the pKd (NHERF2_2, Q15599; [2]) was “below the threshold” and the pKd (MAGI2_4, Q86UL8; [2]) was 4.45. The pKd (FRMPD1, Q5SYB0; [2]) was “below the threshold”, the pKd (MAGI1_1, Q96QZ7; [2]) was “below the threshold” and the pKd (DLG1_3, Q12959; [2]) was 4.2. For the same binder, the pKd (HTRA4, P83105; [2]) was 3.46, the pKd (GRIP2_7, Q9C0E4; [2]) was “below the threshold” and the pKd (Inadl_2, Q8NI35; [2]) was “below the threshold”. The pKd (TJP3_3, O95049; [2]) was “below the threshold”, the pKd (SNTB1, Q13884; [2]) was 4.14 and the pKd (GRID2IP_1, A4D2P6; [2]) was “below the threshold”. For the same binder, the pKd (IL16_4, Q14005; [2]) was 3.49.
